Results reported in US6133009.

Test system: HpyCH4V restriction endonuclease (Helicobacter pylori CH4)
Experiment: cleavage_in_vitro
Settings: fragments of 576, 498, 441, 335, 315, 312, 296, 244, 205 bp and 12 smaller than 200 bp

Substance pBR322 DNA has a number of cleavage fragments of 21 fragments.
